Our source for the Kd values is paper PMC9352680, “A comprehensive thermodynamic model for RNA binding by the Saccharomyces cerevisiae Pumilio protein PUF4”.

Residue numbers refer to the chain shown, from its start. In names and notes the source's numbering stands.

T1: PUF4 RNA-binding domain (Saccharomyces cerevisiae, UniProt P25339 537-888)
T1 sequence: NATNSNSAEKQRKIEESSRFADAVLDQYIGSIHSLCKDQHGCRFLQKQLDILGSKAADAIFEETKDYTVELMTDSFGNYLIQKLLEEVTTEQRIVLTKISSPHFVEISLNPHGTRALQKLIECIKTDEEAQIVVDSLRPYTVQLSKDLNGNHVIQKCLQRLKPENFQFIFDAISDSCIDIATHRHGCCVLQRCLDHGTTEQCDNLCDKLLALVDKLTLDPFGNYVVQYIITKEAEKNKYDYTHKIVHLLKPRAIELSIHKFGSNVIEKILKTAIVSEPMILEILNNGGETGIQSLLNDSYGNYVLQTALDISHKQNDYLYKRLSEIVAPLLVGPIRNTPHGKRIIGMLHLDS

B1: Ib_S4_P5E.1_K5.1_C5.1_H5.1_A5.1_[A7C]_F5.1_[T8G]_T5.1 (ssRNA)
RNA: UUUGACAACUGAUCGUUCUUUCUUGUAUUCGUAUUCUUUCUCGAUCAGUUGUCUUU
B2: Ib_S4_P5E.1_K5.1_C5.1_H5.1_A5.1_[A7T]_F5.1_[T8G]_T5.1 (ssRNA)
RNA: B1 RNA with C30U
B3: Ib_S4_P5E.1_K5.1_C5.1_H5.1_A5.1_[A7T]_F5.1_[T8C]_T5.1 (ssRNA)
RNA: B1 RNA with C30U, G31C
B4: Ib_S4_P5E.1_K5.1_C5.1_H5.1_[T1G]_[A4C]_A5.1_F5.1_T5.1 (ssRNA)
RNA: B1 RNA with U24G, A27C, C30A, G31U
B5: Ib_S4_P5E.1_K5.1_C5.1_H5.1_[G2C]_A5.1_[T6C]_F5.1_T5.1 (ssRNA)
RNA: B1 RNA with G25C, U29C, C30A, G31U
B6: Ib_S4_P5E.1_K5.1_C5.1_H5.1_[T1C]_[T3C]_A5.1_F5.1_T5.1 (ssRNA)
RNA: B1 RNA with U24C, U26C, C30A, G31U
B7: Ib_S4_P5E.1_K5.1_C5.1_H5.1_A5.1_[A7G]_F5.1_[T8C]_T5.1 (ssRNA)
RNA: B1 RNA with C30G, G31C
B8: Ib_S4_P5E.1_K5.1_C5.1_H5.1_A5.1_[A7G]_F5.1_[A10G]_T5.1 (ssRNA)
RNA: B1 RNA with C30G, G31U, A33G
B9: Ib_S4_P5E.1_K5.1_C5.1_H5.1_[T1C]_A5.1_[T5G]_F5.1_T5.1 (ssRNA)
RNA: B1 RNA with U24C, U28G, C30A, G31U
B10: Ib_S4_P5E.1_K5.1_C5.1_H5.1_A5.1_[A7T]_F5.1_[A10T]_T5.1 (ssRNA)
RNA: B1 RNA with C30U, G31U, A33U
B11: Ib_S4_P5E.1_K5.1_C5.1_H5.1_[T1A]_[T3C]_A5.1_F5.1_T5.1 (ssRNA)
RNA: B1 RNA with U24A, U26C, C30A, G31U
B12: Ib_S4_P5E.1_K5.1_C5.1_H5.1_[T1A]_A5.1_[T6C]_F5.1_T5.1 (ssRNA)
RNA: B1 RNA with U24A, U29C, C30A, G31U
B13: Ib_S4_P5E.1_K5.1_C5.1_H5.1_[T1C]_[G2T]_A5.1_F5.1_T5.1 (ssRNA)
RNA: B1 RNA with U24C, G25U, C30A, G31U
B14: Ib_S4_P5E.1_K5.1_C5.1_H5.1_[G2T]_A5.1_[T5A]_F5.1_T5.1 (ssRNA)
RNA: B1 RNA with G25U, U28A, C30A, G31U
B15: Ib_S4_P5E.1_K5.1_C5.1_H5.1_[G2A]_[A4T]_A5.1_F5.1_T5.1 (ssRNA)
RNA: B1 RNA with G25A, A27U, C30A, G31U
B16: Ib_S4_P5E.1_K5.1_C5.1_H5.1_A5.1_[T6C]_F5.1_[A10T]_T5.1 (ssRNA)
RNA: B1 RNA with U29C, C30A, G31U, A33U
B17: Ib_S4_P5E.1_K5.1_C5.1_H5.1_[T1C]_[G2A]_A5.1_F5.1_T5.1 (ssRNA)
RNA: B1 RNA with U24C, G25A, C30A, G31U
B18: Ib_S4_P5E.1_K5.1_C5.1_H5.1_[G2C]_[A4G]_A5.1_F5.1_T5.1 (ssRNA)
RNA: B1 RNA with G25C, A27G, C30A, G31U
B19: Ib_S4_P5E.1_K5.1_C5.1_H5.1_[G2A]_[T3A]_A5.1_F5.1_T5.1 (ssRNA)
RNA: B1 RNA with G25A, U26A, C30A, G31U
B20: Ib_S4_P5E.1_K5.1_C5.1_H5.1_[T1C]_A5.1_[T6A]_F5.1_T5.1 (ssRNA)
RNA: B1 RNA with U24C, U29A, C30A, G31U
B21: Ib_S4_P5E.1_K5.1_C5.1_H5.1_[T1C]_A5.1_[A7G]_F5.1_T5.1 (ssRNA)
RNA: B1 RNA with U24C, C30G, G31U
B22: Ib_S4_P5E.1_K5.1_C5.1_H5.1_A5.1_[T5C]_F5.1_[A10T]_T5.1 (ssRNA)
RNA: B1 RNA with U28C, C30A, G31U, A33U
B23: Ib_S4_P5E.1_K5.1_C5.1_H5.1_[G2C]_[A4T]_A5.1_F5.1_T5.1 (ssRNA)
RNA: B1 RNA with G25C, A27U, C30A, G31U
B24: Ib_S4_P5E.1_K5.1_C5.1_H5.1_A5.1_[A7T]_F5.1_[A10G]_T5.1 (ssRNA)
RNA: B1 RNA with C30U, G31U, A33G
B25: Ib_S4_P5E.1_K5.1_C5.1_H5.1_[G2T]_A5.1_[T5C]_F5.1_T5.1 (ssRNA)
RNA: B1 RNA with G25U, U28C, C30A, G31U
B26: Ib_S4_P5E.1_K5.1_C5.1_H5.1_[T3C]_[A4C]_A5.1_F5.1_T5.1 (ssRNA)
RNA: B1 RNA with U26C, A27C, C30A, G31U
B27: Ib_S4_P5E.1_K5.1_C5.1_H5.1_[T3C]_[A4T]_A5.1_F5.1_T5.1 (ssRNA)
RNA: B1 RNA with U26C, A27U, C30A, G31U
B28: Ib_S4_P5E.1_K5.1_C5.1_H5.1_[T3G]_[A4T]_A5.1_F5.1_T5.1 (ssRNA)
RNA: B1 RNA with U26G, A27U, C30A, G31U
B29: Ib_S4_P5E.1_K5.1_C5.1_H5.1_[T1C]_A5.1_[T6C]_F5.1_T5.1 (ssRNA)
RNA: B1 RNA with U24C, U29C, C30A, G31U
B30: Ib_S4_P5E.1_K5.1_C5.1_H5.1_A5.1_[A7G]_F5.1_[T9C]_T5.1 (ssRNA)
RNA: B1 RNA with C30G, G31U, U32C
B31: Ib_S4_P5E.1_K5.1_C5.1_H5.1_[G2C]_A5.1_[T6A]_F5.1_T5.1 (ssRNA)
RNA: B1 RNA with G25C, U29A, C30A, G31U
B32: Ib_S4_P5E.1_K5.1_C5.1_H5.1_A5.1_[A7C]_F5.1_[T9C]_T5.1 (ssRNA)
RNA: B1 RNA with G31U, U32C
B33: Ib_S4_P5E.1_K5.1_C5.1_H5.1_[T3G]_[A4C]_A5.1_F5.1_T5.1 (ssRNA)
RNA: B1 RNA with U26G, A27C, C30A, G31U
B34: Ib_S4_P5E.1_K5.1_C5.1_H5.1_[T1C]_[A4T]_A5.1_F5.1_T5.1 (ssRNA)
RNA: B1 RNA with U24C, A27U, C30A, G31U
B35: Ib_S4_P5E.1_K5.1_C5.1_H5.1_[T1A]_[A4G]_A5.1_F5.1_T5.1 (ssRNA)
RNA: B1 RNA with U24A, A27G, C30A, G31U
B36: Ib_S4_P5E.1_K5.1_C5.1_H5.1_[G2T]_[A4G]_A5.1_F5.1_T5.1 (ssRNA)
RNA: B1 RNA with G25U, A27G, C30A, G31U
B37: Ib_S4_P5E.1_K5.1_C5.1_H5.1_[G2C]_A5.1_[T5A]_F5.1_T5.1 (ssRNA)
RNA: B1 RNA with G25C, U28A, C30A, G31U
B38: Ic_S4_P5E.1_K5.1_C5.1_H5.1_A5.1_[A7C]_F5.1_[A10T]_T5.1 (ssRNA)
RNA: B1 RNA with G31U, A33U
B39: Ib_S4_P5E.1_K5.1_C5.1_H5.1_A5.1_[T5A]_F5.1_[A10C]_T5.1 (ssRNA)
RNA: B1 RNA with U28A, C30A, G31U, A33C
B40: Ib_S4_P5E.1_K5.1_C5.1_H5.1_A5.1_[T5G]_F5.1_[T9A]_T5.1 (ssRNA)
RNA: B1 RNA with U28G, C30A, G31U, U32A
B41: Ib_S4_P5E.1_K5.1_C5.1_H5.1_A5.1_[A7T]_F5.1_[T9C]_T5.1 (ssRNA)
RNA: B1 RNA with C30U, G31U, U32C
B42: Ic_S4_P5E.1_K5.1_C5.1_H5.1_A5.1_[T6C]_F5.1_[T9A]_T5.1 (ssRNA)
RNA: B1 RNA with U29C, C30A, G31U, U32A
B43: Ib_S4_P5E.1_K5.1_C5.1_H5.1_[G2A]_A5.1_[T5G]_F5.1_T5.1 (ssRNA)
RNA: B1 RNA with G25A, U28G, C30A, G31U
B44: Ib_S4_P5E.1_K5.1_C5.1_H5.1_[T1C]_A5.1_[A7T]_F5.1_T5.1 (ssRNA)
RNA: B1 RNA with U24C, C30U, G31U
B45: Ib_S4_P5E.1_K5.1_C5.1_H5.1_A5.1_[T5G]_F5.1_[A10G]_T5.1 (ssRNA)
RNA: B1 RNA with U28G, C30A, G31U, A33G
B46: Ib_S4_P5E.1_K5.1_C5.1_H5.1_A5.1_[T5C]_F5.1_[T9C]_T5.1 (ssRNA)
RNA: B1 RNA with U28C, C30A, G31U, U32C
B47: Ia_S4_P4E.1_K4.1_C4.1_H4.1_A4.1_[T5C]_F4.1_T4.1 (ssRNA)
RNA: UUUGACAACUGAUCGUUCUUUCUUGUACAUUAUUCUUUCUCGAUCAGUUGUCUUU
B48: Ia_S4_P4E.1_K4.1_C4.1_H4.1_A4.1_[A6C]_F4.1_T4.1 (ssRNA)
RNA: B47 RNA with C28U, A29C
B49: Ia_S4_P4E.1_K4.1_C4.1_H4.1_A4.1_[A6T]_F4.1_T4.1 (ssRNA)
RNA: B47 RNA with C28U, A29U
B50: Ic_S4_P4E.1_K4.1_C4.1_H4.1_A4.1_[T7G]_F4.1_T4.1 (ssRNA)
RNA: B47 RNA with C28U, U30G
B51: Ic_S4_P4E.1_K4.1_C4.1_H4.1_A4.1_[T5A]_F4.1_T4.1 (ssRNA)
RNA: B47 RNA with C28A

This data set deals with T1, PUF4 RNA-binding domain. Put plainly: Mg; RNA-MaP; 20 mM Na-HEPES pH 7.4, 30 mM KOAc, 0.75 mM MgCl2, 0.1% Tween-20, 5% glycerol, 0.1 mg/mL BSA, 2 mM DTT; 25 C; 0.0125-409.6 nM protein. To be noted: tags: N-His6-TEV cleaved; C-SNAP kept, Cy3B-labelled; label: tethered on chip by stalled RNA polymerase.
Usually Kd stands for the concentration at which binding is half-saturated. Low values mean a tighter complex, high ones a looser complex. As to B1, binding was put at a Kd of 10.4 nM. Under B2 stands 3.74 nM; under B3, 3.12 nM; under B4, over 2300 nM. B5 gave a Kd of 1940 nM. With B6 the figure was over 2300 nM. Molecule B7 came in with a Kd of 14.9 nM. Under B8 stands 52.3 nM; under B9, over 2300 nM.

B10 registered a Kd of 10.7 nM.

B11 showed a Kd of over 2300 nM. Under B12 stands over 2300 nM; under B13, over 2300 nM; under B14, over 2300 nM. As for B15, binding was put at a Kd of 1440 nM.

Consider B16, for which the Kd came to 7.7 nM. With B17 the figure was 1660 nM; with B18, 455 nM. In the case of B19, the Kd was 2140 nM.

For B20, binding was put at a Kd of 1040 nM.

As to B21, the affinity, expressed as Kd, was 2200 nM. With B22 the figure was 4.98 nM; with B23, over 2300 nM; with B24, 9.13 nM. For the molecule B25, the Kd is over 2300 nM. With B26 the figure was 862 nM. Under B27 stands 453 nM; under B28, 745 nM; under B29, 637 nM. For B30, the Kd stood at 393 nM. With B31 the figure was over 2300 nM; with B32, 56 nM.

For the molecule B33, binding was put at a Kd of 1880 nM. With B34 the figure was 1050 nM. Under B35 stands 1260 nM. For the molecule B36, binding was put at a Kd of 492 nM. With B37 the figure was over 2300 nM; with B38, 13.8 nM; with B39, 29.4 nM. With B40, the Kd is 7.64 nM.

Regarding B41, binding was characterised by a dissociation constant (Kd) of 69.4 nM. For B42, binding was characterised by a dissociation constant (Kd) of 1.47 nM.

B43 gave a Kd of 1940 nM. With B44 the figure was 370 nM; with B45, 109 nM; with B46, 27.6 nM. With UCUCUUUGUUUAUAUCUCUU (ssRNA) [Ia_S1_P3E.1_K3.1_C3.1_H3.1_[A4T]_A3.1_F3.1_T3.1] the figure was 478 nM; with B47, 0.303 nM; with B48, 2.17 nM. With B49 the figure was 1.24 nM. B50 showed a Kd of 1.66 nM. With B51 the figure was 1.69 nM.
